Holding throughout (experiment): FRET or BRET
Assay [1] deals with ^NDD_(BaeN)+mTurquoise2 (Bacillus amyloliquefaciens FZB42 | not stated).
The target of assay [2] is ^NDD_(DifG)+mTurquoise2 (Bacillus amyloliquefaciens FZB42 | not stated).
The target in assay [3] is ^NDD_(MlnC)+mTurquoise2 (Bacillus amyloliquefaciens FZB42 | not stated).

Turning to Venus+^CDD_(BaeM), in assay [1], the Kd is 7.4 µM.

Substance Venus+^CDD_(DifF) gave a Kd in assay [2] of 6.3 µM.

For the substance Venus+^CDD_(MlnB), the Kd in assay [3] came to 2.9 µM.

The values above are taken from publication PMC7102495.
